Data from PMC7289600, “Signaling diversity enabled by Rap1-regulated plasma membrane ERK with distinct temporal dynamics” (eLife, 2020).

T1: Rap1-binding domain (RBD) from RalGDS fused to the acceptor fluorophore Ypet (second chain of Rap1A/B-FLARE) (UniProt Q12967 798-885)
T1 construct: also called RalGDS RBD; source: PC12 cells, transfected (Lipofectamine 2000), in living cells
T1 sequence (looked up): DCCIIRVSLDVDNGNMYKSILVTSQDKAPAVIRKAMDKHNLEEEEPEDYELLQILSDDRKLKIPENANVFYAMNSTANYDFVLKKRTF


Molecular target: T1, Rap1-binding domain (RBD) from RalGDS …
Assay: FRET or BRET; dual-chain Rap1A/B-FLARE biosensors expressed in living PC12 cells; EGF added at time 0; yellow over cyan (Y/C) emission ratio imaging in HBSS at 37°C; increase abrogated by co-expression of Rap1GAP or by GGTI-298
Settings: partners not purified

increase in Y/C emission ratio (FRET) after EGF	Binder
25.4%	Rap1A fused to the donor fluorophore mCerulean3 (Rap1A chain of the dual-chain biosensor Rap1A-FLARE) (natural protein, UniProt P62834 1-184, looked up, Rap1A, GTPase of the Ras family; plasmid provided by Klaus Hahn; source: PC12 cells, transfected (Lipofectamine 2000), in living cells; not shown: mCerulean3, N-terminal, kept) MREYKLVVLGSGGVGKSALTVQFVQGIFVEKYDPTIEDSYRKQVEVDCQQCMLEILDTAGTEQFTAMRDLYMKNGQGFALVYSITAQSTFNDLQDLREQILRVKDTEDVPMILVGNKCDLEDERVVGKEQGQNLARQWCNCAFLESSAKSKINVNEIFYDLVRQINRKTPVEKKKPKKKSCLLL
26%	Rap1B fused to the donor fluorophore mCerulean3 (Rap1B chain of the dual-chain biosensor Rap1B-FLARE) (natural protein, UniProt P61224 1-184, looked up, Rap1B, GTPase of the Ras family; plasmid provided by Klaus Hahn; source: PC12 cells, transfected (Lipofectamine 2000), in living cells; not shown: mCerulean3, N-terminal, kept) MREYKLVVLGSGGVGKSALTVQFVQGIFVEKYDPTIEDSYRKQVEVDAQQCMLEILDTAGTEQFTAMRDLYMKNGQGFALVYSITAQSTFNDLQDLREQILRVKDTDDVPMILVGNKCDLEDERVVGKEQGQNLARQWNNCAFLESSAKSKINVNEIFYDLVRQINRKTPVPGKARKKSSCQLL
